From patent US7906477B2, “Activation of peptide prodrugs by hK2” (Genspera, Inc., priority 2002, dated 2011)

Key:
[1] = tested on: T1, Cc1cc(=O)oc2cc(NC(=O)[C@H](CCCNC(=N)N)NC(=O)[C@H](Cc3ccccc3)NC(=O)[C@H](C)NC(=O)[C@H](CCCCN)NC(=O)CN)ccc12; assay: hK2 mediated hydrolysis of peptide substrates in solution (fluorescence); assay type: biochemical, human; settings: other: Lineweaver-Burke reciprocal plots; 37.0 °C
T1 construct: made in house

[2] = tested on: T2, C[C@H](NC(=O)[C@H](CCCCN)NC(=O)CNC(=O)[C@@H](N)Cc1ccc(O)c([N+](=O)[O-])c1)C(=O)N[C@@H](Cc1ccccc1)C(=O)N[C@@H](CCCNC(=N)N)C(=O)N[C@@H](CCCNC(=N)N)C(=O)N[C@@H](CN)C(=O)N[C@@H](Cc1ccccc1)C(=O)N[C@@H](CCCCNC(=O)c1ccccc1N)C(=O)O; assay: as above; assay type: biochemical, human; settings: other: Lineweaver-Burke reciprocal plots; 37.0 °C
T2 construct: made in house
Method: FIG. 2 depicts a graph of hK2 mediated hydrolysis of peptide substrates identified through the screening of a random peptide library [Y′GKARAF-Dap-FK′ (SEQ ID NO:36), Y′GKAKPR-Dap-FK′ (SEQ ID NO:37), Y′GKAFRR-Dap-FK′ (SEQ ID NO:38), Y′GKAMRQ-Dap-FK′ (SEQ ID NO:39) and Y′GSKGHFKL-Dap-F-K′ (SEQ ID NO:40)]. Substrates (250 μM) were incubated with 8 μg/ml hK2 in PBS buffer. Hydrolysis of peptide results in increased fluorescence, as measured using a 96 well fluorometer. […] To determine 100% digestion, trypsin was added (50 mg/ml) and samples were incubated to 37° C. for 30 min and the fluorescence was determined. The percentage digested is determined by dividing fluorescence units of sample by fluorescence units of control fully digested peptide.
A mutant form of hK2 was utilized in which the amino acids −5 to −1 of the propeptide sequence of hK2 (i.e. Leu-Ile-Gln-Ser-Arg; SEQ ID NO:15) were mutated to Asp-Asp-Asp-Asp-Lys (SEQ ID NO:16) to generate a pro-hK2 protein that can be activated to functional hK2 by […] (Lovgren, J. et al. (1999) Eur. J. Biochem. 266:1050-1055). […]
For validation of the Edman results, peptides were re-synthesized using a Rainin PS3 peptide synthesizer with HBTU/NMM activation. […] Fluorescence measurements were performed on a Fluoroskan II 96-well plate reader (ICN biomedicals, Costa Mesa, Calif.; excitation, 355 nm; emission, 460 nm). Kinetic parameters were calculated as described earlier (Denmeade, S. R. et al. (1997) Cancer Res. 57:4924-4930).
The combinatorial screen identified seven arginine-containing peptides. […] All four arginine-containing sequences that were re-synthesized reproduced fluorescence when these peptides were digested on-bead with hK2. For a more quantitative analysis, the fluorescence-quenched peptides were cleaved off the resin and purified by HPLC. The rate of hydrolysis was quantified by measuring increase in fluorescence (Figure). […] In subsequent studies, hydrolysis rates using the Y′GKAFRR-Dap-F-K′ (SEQ ID NO:38) peptide were analyzed by Lineweaver-Burke reciprocal plots.

Question: For hK2 (Homo sapiens), which Km [1] is on record?
Answer: 146 µM

Question: What about the kcat [1] of the same substance?
Answer: 0.13 s⁻¹

Question: And the kcat/Km [1]?
Answer: 895 M⁻¹ s⁻¹

Question: And the Km [2]?
Answer: 26.5 µM

Question: And the kcat [2]?
Answer: 1.09 s⁻¹

Question: And the kcat/Km [2]?
Answer: 41,132 sec^−1 M^−1
